Where no end group is shown, it is not given here.
Target: T1, IL-7Rα-Fc (CD127 protein, Fc tag; ECD 21-236; ACRObiosystems, Inc, Cat. #ILA-H5258) (human, UniProt P16871 21-236)
T1 construct: range 21-236; also called hu-IL-7Rα subunit; not shown: Fc tag of the purchased protein
T1 sequence (looked up): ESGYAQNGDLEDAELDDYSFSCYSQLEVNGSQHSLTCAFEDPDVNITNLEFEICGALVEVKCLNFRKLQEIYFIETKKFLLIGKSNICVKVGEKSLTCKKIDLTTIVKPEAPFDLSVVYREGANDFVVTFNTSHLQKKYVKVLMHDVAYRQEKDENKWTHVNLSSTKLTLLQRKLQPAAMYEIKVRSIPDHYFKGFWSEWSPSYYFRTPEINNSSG
Assay: competition binding ELISA, plate-coated receptor, biotinylated reference peptide::NA-HRP tracer
Procedure: Binding of the synthetic IL-7Rα ligands to IL-7Rα was evaluated using a competition binding ELISA. Microtiter plate wells were coated with IL-7Rα-Fc (CD127 protein, Fc tag; ECD 21-236; ACRObiosystems, Inc, Cat. #ILA-H5258) at 1 μg/mL; 50 μL per well in PBS for at least 1 h. The plate was washed once with wash buffer (200 μL, PBS containing 0.05% Tween®-20 (Sigma). Wells were blocked with blocking buffer (PBS containing 1% BSA (BSA Fraction V; VWR Cat. No. 97061-416) for 1 h. A serial dilution of the peptides was prepared, at twice the final concentration, in assay buffer (PBS containing 0.5% BSA and 0.05% Tween®-20) in a 96-well polypropylene plate. A terminal biotinylated form of the reference IL-7Rα peptide ligand having SEQ ID NO: 300 ([…]) was used to make a precomplex with NeutrAvidin-HRP (NA-HRP; ThermoFisher Cat. No. 31030) (Precomplex referred to as bnPeptide::NA-HRP). The bnPeptide::NA-HRP precomplex was prepared by mixing 1.5 μL 100 μM biotinylated peptide, 2 μL NA-HRP and 11.5 PBS and incubated at 4° C. for at least 45 min. After blocking the wells, the plate was washed with a plate washer and serial dilutions of the peptides were added (50 μL/well) and the plate was incubated at 4° C. for 1 h on a plate shaker. […] Fifty (50) μL of a solution (Surmodics Cat. #LSTP-0100-0) was then added and the plate read at 450 nm. […]

B1: IL-7Rαγc ligand having SEQ ID NO: 30 (peptide)
peptide: GWGIPWCTLDPGSLQCAWLGKHGGGGSGGVVCQDWEGVELCWQGG
modifications: disulfide (positions not given here); also: two disulfide bridges, pairing not given here
Q: Does B1 bind?
A: Result: binds

Source: patent publication US20230322880A1 (MEDIKINE, published 2023)
